In publication PMC5887453 (Nucleic Acids Research, 2018):

Key:
PhoEF-2 L214S/V216S = molecular target: T1, PhoEF-2 L214S/V216S (Pyrococcus horikoshii, UniProt O59521 1-732, L214S | V216S); assay: native gel or EMSA
T1 sequence (looked up): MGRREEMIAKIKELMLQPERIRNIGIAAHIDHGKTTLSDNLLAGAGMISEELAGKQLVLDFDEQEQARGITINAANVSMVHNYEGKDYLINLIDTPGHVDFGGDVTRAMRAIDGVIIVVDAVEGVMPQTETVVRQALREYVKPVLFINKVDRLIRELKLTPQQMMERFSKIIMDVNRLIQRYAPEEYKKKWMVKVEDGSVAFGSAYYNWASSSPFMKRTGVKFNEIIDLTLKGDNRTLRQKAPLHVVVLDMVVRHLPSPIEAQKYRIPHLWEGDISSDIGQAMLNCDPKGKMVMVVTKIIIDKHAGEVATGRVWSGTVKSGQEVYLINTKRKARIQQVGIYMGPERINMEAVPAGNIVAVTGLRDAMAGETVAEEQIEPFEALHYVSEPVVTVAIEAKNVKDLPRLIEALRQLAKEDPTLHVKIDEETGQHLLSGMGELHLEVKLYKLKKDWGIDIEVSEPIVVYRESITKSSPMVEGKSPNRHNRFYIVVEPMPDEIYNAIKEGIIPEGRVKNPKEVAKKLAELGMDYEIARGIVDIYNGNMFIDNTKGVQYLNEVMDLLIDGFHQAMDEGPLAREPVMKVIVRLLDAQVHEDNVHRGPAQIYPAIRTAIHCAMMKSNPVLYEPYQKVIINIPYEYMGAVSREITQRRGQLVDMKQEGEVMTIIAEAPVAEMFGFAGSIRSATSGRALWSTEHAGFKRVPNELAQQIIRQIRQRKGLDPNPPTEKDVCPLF

PhoEF-2 K225S = molecular target: T2, PhoEF-2 K225S (Pyrococcus horikoshii, UniProt O59521 1-732, K225S); assay: native gel or EMSA
T2 sequence (looked up): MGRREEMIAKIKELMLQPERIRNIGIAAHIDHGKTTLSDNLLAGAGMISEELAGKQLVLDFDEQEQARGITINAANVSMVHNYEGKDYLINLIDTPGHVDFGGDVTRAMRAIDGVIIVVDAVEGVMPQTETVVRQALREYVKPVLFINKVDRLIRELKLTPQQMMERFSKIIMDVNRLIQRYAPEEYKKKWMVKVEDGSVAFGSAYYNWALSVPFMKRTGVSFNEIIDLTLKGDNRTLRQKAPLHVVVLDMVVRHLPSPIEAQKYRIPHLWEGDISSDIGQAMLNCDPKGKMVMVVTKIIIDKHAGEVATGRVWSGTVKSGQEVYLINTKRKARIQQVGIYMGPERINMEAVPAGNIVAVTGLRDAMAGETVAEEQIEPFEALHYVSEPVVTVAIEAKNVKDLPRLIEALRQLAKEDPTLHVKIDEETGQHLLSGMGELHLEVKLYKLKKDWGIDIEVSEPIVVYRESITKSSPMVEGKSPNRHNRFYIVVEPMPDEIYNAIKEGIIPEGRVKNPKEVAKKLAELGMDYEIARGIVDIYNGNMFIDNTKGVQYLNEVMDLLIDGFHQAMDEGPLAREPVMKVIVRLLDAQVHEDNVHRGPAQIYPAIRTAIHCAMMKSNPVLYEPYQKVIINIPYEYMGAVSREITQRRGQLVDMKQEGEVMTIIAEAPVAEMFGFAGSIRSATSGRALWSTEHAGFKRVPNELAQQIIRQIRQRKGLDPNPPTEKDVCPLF

binding result (PhoEF-2 L214S/V216S): binds | binding result (PhoEF-2 K225S): binds
B1: Pyrococcus horikoshii ribosomal stalk protein P1 (natural protein, UniProt O57705 1-108, looked up)
chain: MEYVYAALLLHSVGKEINEENLKAVLQAAGVEPEEARIKALVAALEGVNIDEVIEKAAMPVAVAAAPAAAPAEAGGEEKKEEEKKEEEEKEEEVSEEEALAGLSALFG
modifications: in the SPR only: biotin on amino groups via a PEG linker (EZ-Link NHS-PEG4-Biotin)
